Results reported in publication PMC8863222.

Target: recombinant equine Keap1, GST-tagged, biotinylated (equine) (UniProt F6VZG9)
Test: BLI; biotinylated Keap1 (65 μg/ml) loaded on streptavidin-coated biosensors; various concentrations of Rev or Nrf2 in PBST (PBS, 0.1 mg/ml BSA, 0.002% Tween 20, pH 7.2); room temperature; Octet Red

Row | Substance | Kd
1 | recombinant equine Nrf2, His-tagged (natural protein) | 400 nM
2 | recombinant EIAV Rev, MBP-tagged (natural protein) | 494 nM
